Laboratory results as given in the supplement of paper PMC10724198.
± gives the standard deviation of the averaged measurements.

Legend:
Saccharomyces cerevisiae [1] = assay: protein stability index of tFT-peptide fusion (C-terminal peptide) (PSI (0-1 scale)); higher = more stable (slower turnover)
Description: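 MPS profiling in S. cerevisiae of the tFT-X12 degron library: putative degron peptides plus stable controls, 12 aa, fused to the C-terminus of a sfGFP-mCherry timer. Cells are FACS-sorted into 8 mCherry/sfGFP bins and deep-sequenced. PSI runs from 0 (unstable) to 1 (stable). Backgrounds are wild type, das1Δ and doa10Δ at 30 °C, and wild type, das1Δ, cdc34-1 and cdc53-1 at 37 °C; 2-3 technical replicates each.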

Saccharomyces cerevisiae [2] = assay: as above; settings: genetic background: wild type; temperature: 30 C
[3] = genetic background: cdc34-1, temperature: 37 C
[4] = genetic background: cdc53-1, temperature: 37 C
[5] = genetic background: das1 deletion, temperature: 30 C
[6] = genetic background: das1 deletion, temperature: 37 C
[7] = genetic background: doa10 deletion, temperature: 30 C
[8] = genetic background: wild type, temperature: 30 C
[9] = genetic background: wild type, temperature: 37 C
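Further: PSI is a weighted mean of sequencing reads over stability bins, variants kept only with over 10 reads, mCherry proximal and sfGFP distal, peptide attached via GGGS linker.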

Sequence	protein stability index (Saccharomyces cerevisiae [1]; [3])	protein stability index (Saccharomyces cerevisiae [1]; [4])	protein stability index (Saccharomyces cerevisiae [1]; [5])	protein stability index (Saccharomyces cerevisiae [1]; [6])	protein stability index (Saccharomyces cerevisiae [1]; [7])	protein stability index (Saccharomyces cerevisiae [1]; [8])	protein stability index (Saccharomyces cerevisiae [1]; [9])	protein stability index (Saccharomyces cerevisiae [2])
FLAWSVGILCRV	0.228 ± 0.023	0.225 ± 0.022	0.238 ± 0.036	0.351 ± 0.011	0.213 ± 0.0026	0.224 ± 0.041	0.318 ± 0.023	0.317 ± 0.018
LSVMKLFVMVGP	0.442 ± 0.0094	0.493 ± 0.027	0.37 ± 0.026	0.5023 ± 0.0045	0.358 ± 0.0093	0.377 ± 0.029	0.479 ± 0.012	0.401 ± 0.039
IHTFSVVVVVAA	0.0536 ± 0.037	0.0437 ± 0.026	0.128 ± 0.029	0.135 ± 0.0088	0.0749 ± 0.0091	0.114 ± 0.031	0.128 ± 0.03	0.163 ± 0.022
FVLLSVCFFGCL	0.306 ± 0.011	0.4219 ± 0.0028	0.336 ± 0.024	0.495 ± 0.017	0.301 ± 0.0069	0.327 ± 0.004	0.438 ± 0.044	0.442 ± 0.024
LFSIFMSYRVYI	0.35 ± 0.037	0.435 ± 0.021	0.383 ± 0.07	0.486 ± 0.017	0.302 ± 0.03	0.312 ± 0.0037	0.44 ± 0.031	0.411 ± 0.02
SIPFWPVLFFLL	0.353 ± 0.021	0.475 ± 0.014	0.494 ± 0.018	0.6088 ± 0.0044	0.0877 ± 0.011	0.091 ± 0.011	0.0952 ± 0.0057	0.14 ± 0.033
QGGTWKKLVKMI	0.573 ± 0.05	0.6963 ± 0.006	0.643 ± 0.055	0.7165 ± 0.0019	0.0823 ± 0.02	0.101 ± 0.018	0.165 ± 0.019	0.226 ± 0.035
GWGVFFVMRIQV	0.1751 ± 0.00088	0.259 ± 0.055	0.225 ± 0.02	0.367 ± 0.017	0.197 ± 0.016	0.198 ± 0.024	0.301 ± 0.029	0.34 ± 0.024
ILDRRPRTFALV	0.572 ± 0.017	0.644 ± 0.018	0.633 ± 0.02	0.692 ± 0.013	0.0946 ± 0.015	0.113 ± 0.011	0.149 ± 0.008	0.186 ± 0.0083
LSFLALLLFFRI	0.228 ± 0.035	0.22 ± 0.061	0.363 ± 0.04	0.44 ± 0.015	0.567 ± 0.017	0.372 ± 0.025	0.357 ± 0.019	0.4764 ± 0.0023
ISHLQCFFVVML	0.439 ± 0.029	0.507 ± 0.025	0.355 ± 0.026	0.563 ± 0.016	0.3759 ± 0.0013	0.346 ± 0.034	0.485 ± 0.0089	0.489 ± 0.042
QVSHLFAAVQLA	0.6103 ± 0.0049	0.687 ± 0.018	0.555 ± 0.0081	0.65 ± 0.0091	0.337 ± 0.021	0.364 ± 0.051	0.573 ± 0.011	0.4485 ± 0.00088
RFLFYSFPIHTL	0.442 ± 0.061	0.6164 ± 0.0028	0.572 ± 0.039	0.67 ± 0.043	0.0683 ± 0.0092	0.0745 ± 0.019	0.105 ± 0.033	0.128 ± 0.0043
MALAVRVVKCGA	0.328 ± 0.016	0.376 ± 0.0062	0.275 ± 0.031	0.4361 ± 0.0027	0.221 ± 0.006	0.268 ± 0.034	0.397 ± 0.0054	0.384 ± 0.028
VGAVGVCILFVW	0.203 ± 0.0086	0.356 ± 0.014	0.242 ± 0.044	0.424 ± 0.0061	0.195 ± 0.016	0.232 ± 0.042	0.43 ± 0.013	0.35 ± 0.038
RKQLSCIMIWCK	0.361 ± 0.013	0.405 ± 0.012	0.204 ± 0.027	0.431 ± 0.0082	0.188 ± 0.0052	0.204 ± 0.015	0.40377 ± 0.00039	0.298 ± 0.011
IVFFVLFRFWRF	0.354 ± 0.019	0.3827 ± 0.0031	0.326 ± 0.038	0.46 ± 0.025	0.318 ± 0.02	0.294 ± 0.017	0.442 ± 0.013	0.32 ± 0.047
FMPFSLLALFVW	0.286 ± 0.00069	0.318 ± 0.0033	0.267 ± 0.02	0.372 ± 0.0064	0.2321 ± 0.0021	0.241 ± 0.041	0.328 ± 0.0069	0.343 ± 0.017
EDRKRNKERRWT	0.679 ± 0.024	0.702 ± 0.013	0.642 ± 0.015	0.716 ± 0.0076	0.305 ± 0.0042	0.303 ± 0.027	0.57 ± 0.01	0.4256 ± 0.0024
